From patent US20260055200A1, “COMBINATION THERAPIES” (Alligator Bioscience AB, priority 2022, published 2026)
Read-outs that look alike come from different tables or passages of the source.

Experiments:
[1] = system: whole blood transcriptome; experiment: RNA-sequencing of peripheral whole blood of MB49 tumour-bearing hCD40tg mice; type: in vivo, mouse; details: for Differentially expressed genes, p. adj < 0.05 / Differentially expressed genes, p. adj < 0.05 & FC > 2: of 14485 total genes
Description: Peripheral blood was collected from the mice at the end of the first cycle and subjected to RNA-sequencing to identify pharmacodynamic biomarkers. RNA was extracted from whole blood after red blood cell lysis using GLOBINclear™ Kit, mouse/rat (AM1981, Invitrogen), and Mouse RiboPure™-Blood RNA Isolation Kit (AM1951, Invitrogen) according to the manufacturer's instruction. Purified RNA was stored in RNase-free microfuge tubes (AM12425, Invitrogen), and frozen at −80 C until further use.
RNA library preparation and sequencing was performed by the Center for Translational Genomics (CTG, Lund University). RNA integrity was analyzed with the TapeStation 4200 (Agilent Technologies), using Agilent RNA ScreenTape and reagents (5067-5576, 5067-5577, Agilent Technologies). RNA concentration was analyzed with the Qubit Flex (Q33327 Invitrogen Thermo Fisher Scientific), using the QuantIT RNA HS Assay Kit (Q33140, Life Technologies). cDNA sequencing libraries were prepared using TruSeq® Stranded mRNA Library Prep kit (20020594, Illumina). The libraries were sequenced in a NovaSeq 6000 System (20012850, Illumina), using the NovaSeq 6000 SP Reagent Kit, 300 cycles v1.5 20028400). The reads were aligned to the mouse reference genome GRCm38 (mm10) using the STAR software (v 2.5.0a.13).
R (v4.0.3) and R studio (v1.4.1103) were used to perform quality control and thresholding, normalization, dimensionality reduction, and visualization as well as differential gene expression analysis. Protein coding genes with a minimum of 5 reads in 3 or more samples were kept for analysis. For data visualization, filtered raw counts were normalized using the variance-stabilizing-transformation method in the DESeq2 package (version 1.38.3).
Principal component analysis (PCA) was used to visualize the data, and assess the effects of the treatment at transcriptomic level.
To identify differentially expressed genes among treatment groups, filtered raw counts were normalized using the median of ratios method in the DESeq2 package. Treatment groups were compared using the negative binomial Wald's test (adjusted-p.value [adj-p.val]<0.05, fold change>2).
Pathway enrichment analysis was performed using EnrichR (v3.0) by querying differentially expressed genes among treatment groups onto the gene ontology database (GO, GO_bioprocess_2018). Re-occurring and highly ranked pathways (adj.p-value<0.05) were selected and harmonized throughout the samples using gene set variation transformation (GSVA). The resulting GSVA scores were plotted as a spider plot for pathway activity comparison among the groups.

[2] = system: advanced stage solid malignancies; details: cited from earlier work
[3] = system: human tumours transplanted into NSG mice; bladder cancer cells in hCD40tg mice; details: cited from earlier work

B1: Mitazalimab: agonistic, human monoclonal (IgG1) antibody targeting CD40 (antibody, chains of the INN, looked up, V domains shown)
VH: EVQLLESGGGLVQPGGSLRLSCAASGFTFSTYGMHWVRQAPGKGLEWLSYISGGSSYIFYADSVRGRFTISRDNSENALYLQMNSLRAEDTAVYYCARILRGGSGMDLWGQGTLVTVSS
VL: QSVLTQPPSASGTPGQRVTISCTGSSSNIGAGYNVYWYQQLPGTAPKLLIYGNINRPSGVPDRFSGSKSGTSASLAISGLRSEDEADYYCAAWDKSISGLVFGGGTKLTVL
- expression of genes involved in response to type-1 IFN and TLR signaling ([1]; alone or in combination with FOLFIRINOX): high expression
- Differentially expressed genes, p. adj < 0.05 ([1]; vs Folfirinox): 3953
- Differentially expressed genes, p. adj < 0.05 & FC > 2 ([1]; vs Folfirinox): 1717
- Differentially expressed genes, p. adj < 0.05 ([1]; vs Mita-Folfirinox): 453
- Differentially expressed genes, p. adj < 0.05 & FC > 2 ([1]; vs Mita-Folfirinox): 221
- Differentially expressed genes, p. adj < 0.05 ([1]; vs untreated): 2114
- Differentially expressed genes, p. adj < 0.05 & FC > 2 ([1]; vs untreated): 849
- best response ([2]; 400 μg/kg intratumoural): stable disease (SD) in one patient with renal cell carcinoma
- patients with increases in liver enzymes or bilirubin ([2]; IV administration): 3 of 5
- dose-limiting toxicities (DLTs) observed ([2]; both intratumoural: grade 3 abdominal pain, grade 3 cholecystitis): Two
- maximum tolerated dose (MTD) ([2]; in vivo): No maximum tolerated dose (MTD) was identified
- patients with increases in liver enzymes or bilirubin ([2]; intratumoural administration): 9 of 18
- immunity to tumour re-challenge ([3]; bladder cancer cells in hCD40tg mice): at least 5 months
- effect on tumour growth and survival in combination ([3]; combined with checkpoint inhibitors, vaccination or chemotherapy (e.g. mFOLFIRINOX), hCD40tg mice): synergistically enhanced effect
- anti-tumour efficacy in vivo ([3]; human tumours in NSG mice and hCD40tg mice): immune-mediated and antibody-dependent cell-mediated cytotoxicity (ADCC)-dependent anti-tumour efficacy
